Consider two molecules from US20240392013A1, “IL1RAP ANTIBODIES AND USES THEREOF” (STELEXIS THERAPEUTICS, LLC, priority 2021, published 2024).

For one test, the system named is cyIL1RAP. Nature of the test: Kinetics of IL1RAP mAbs by Octet, cynomolgus IL1RAP. The format is binding. As for the experimental part:
Antibodies were diluted in kinetics buffer (0.1% BSA, 0.02% Tween-20 and 0.05% NaN3 in PBS) and loaded onto 16 channel anti-mouse IgG Fc capture sensors (AMC, Cat #2001073; Sartorius, Göttingen, Germany). Human, huIL1RAP-His (Sino Biological, lot: MB08MA1301), and monkey, cyIL1RAP-His (Lake Pharma, NY, USA; lot:16205819371) proteins were titrated starting from the highest concentration of 100 nM and followed by 50 nM and 25 nM. Purified antibodies were loaded at 5 μg/ml in kinetics buffer. The experimental parameters selected to determine the kinetic constants were Baseline for 60 s, Loading of antibody to sensor for 180 s, Association of analyte to antibody for 120 s, Dissociation for 1200 s and Regeneration in 10 mM Glycine pH 1.7 for 4×30 s.
Regeneration cycle tracking was selected for 12 cycles. Binding to human and cynomolgus IL1RAP was measured and KD (M) kinetics were calculated. Also, the disassociation rate (Kdis) (1/s) and association rate (Kon) (1/Ms) kinetics were calculated (data not shown).

For test [1], the system named is IL1-induced NFκB activity. Put plainly: HEK-BlueIL1β NFκB Reporter Assay. In kind it is cell-based. Conditions: nM range, read-out: IC50, inhibition of IL1-induced NFκB activity. As for the experimental part: The HEK-Blue IL1β (Invivogen, Cat #hkb-il1b) cell line was used to monitor NFκB activity upon stimulation with IL1β cytokine. In this cell line the secreted embryonic alkaline phosphatase reporter gene (SEAP) is inducibly expressed under the control of IFN-β minimal promoter fused to NFκB/AP-1. Specificity to IL1β cytokine was achieved by blockage of TNF-α response. The cells were maintained in the presence of hygromycin (200 μg/ml) and zeocin (100 μg/ml).
For the functional assay, cells were plated at a density of 5×10^4 cells/well in 96-well plates. Cells were treated with each antibody at the highest concentration of 200 μg/ml followed by seven serial 1:3 dilutions and incubated for 45 minutes at 37° C./5% CO2 in humified incubator. Cells were then stimulated with IL1β ([…]) and incubated overnight at 37° C./5% CO2 in humified incubator. Every treatment was conducted in triplicates. Following, supernatants from each well were mixed with Quanti-Blue substrate (Invivogen, CA USA; Cat #rep-qb1) according to manufacturer's recommendations and secreted SEAP was measured using spectrophotometer at 650 nm.

Another test has as its system A549 cells. Put plainly: IL-1-induced IL-6 secretion, ELISA. In kind it is cell-based, human. Conditions: 66 nM-2 μM, 72 hours, dose-dependent. As for the experimental part:
Methods: A549 cells were seeded on CytoOne® 24 well plate (USA Scientific, Cat #CC7682-7524) at 0.05×10^6/mL and were kept at 37° C./5% CO2 in humified incubator. After 6 hours, the cells were treated with IL-1β (0.5 ng/ml) in the presence or absence of IL1RAP antibodies at 66 nM, 200 nM, 666 nM and 2 μM at 37° C./5% CO2 in humified incubator. Cell culture media was collected after 72 hours and was centrifuged at 4° C. for 5 min. All supernatant samples were analyzed in triplicates. Human IL-6 microplate (R&D Part #890045) was incubated for 2 hours at room temperature with standard, control, or supernatant samples (100 μl) diluted in assay diluent RD1W (100 μl). Samples were aspirated and washed with wash buffer (R&D, cat #895003) four times. Human IL-6 conjugate (200p1) (R&D, cat #890046) was added to each well and incubated for 2 hours at room temperature. Aspiration/wash step was repeated as stated above. Equal volume of substrate color reagent A (R&D, cat #895000) and B (R&D, cat #895001) were mixed, and the substrate solution (200 μl) was added to each well and incubated for 20 minutes at room temperature in the dark. Stop solution (50p1) (R&D, cat #895032) was added to each well and optical density was determined at 450 nm by Cytation™ Cell Imaging Multi-Mode Reader (BioTek).

The test system of another test is A431 cells. Put plainly: IL-36-induced IL-8 secretion, ELISA. In kind it is cell-based, human. Conditions: IL-36γ, 72 hours, dose-dependent. As for the experimental part:
Methods: A431 cells were seeded on CytoOne® 24 well plate (USA Scientific, Cat #CC7682-7524) at 0.05×10^6/mL and were kept at 37° C./5% CO2 in humified incubator. After 6 hours the cells were treated with IL-36γ (0.5 ng/ml) in the presence or absence of IL1RAP antibodies at 66 nM, 200 nM, 666 nM and […]. Cell culture media was collected after 72 hours and was centrifuged at 4° C. for 5 min. All supernatant samples were analyzed in triplicates. Human IL-8 microplate (R&D cat #890462) was incubated for 2 hours at room temperature with standard, control, or supernatant samples (1001) diluted in assay Diluent RD1-85 (1001). Samples were aspirated and washed with wash buffer (R&D Part #895003) for four times. Human IL-8 conjugate (200 μl) (R&D cat #890465) was added to each well and incubated for 2 hours at room temperature. Aspiration/wash step was repeated as stated above. Equal volume of substrate color reagent A (R&D, cat #895000) and B (R&D, cat #895001) were mixed, and the substrate solution (200 ul) was added to each well and incubated for 20 minutes at room temperature in the dark. Stop solution (501) (R&D, cat #895032) was added to each well and optical density of each well was determined at 450 nm with Cytation™ Cell Imaging Multi-Mode Reader (BioTek).

B1: 74804_12A21B: anti-IL1RAP mAb; VH SEQ ID NO:6, VL SEQ ID NO:23, κ light chain (antibody, V domains shown)
VH: QVQLLQSGAEVKKPGSSVKVSCKASGGTFSIYAIDWVRQAPGQGLEWMGGIIPIFGTANSAQKFQGRVTITADKSTSTAYMELSSLRSEDTAVYYCARNGATSDAFDMWGQGTMVTVSS
VL: EIVLTQSPGTLSLSPGERATLSCRASLSVSSNYLAWFQQRPGQAPRLLIHGVSRRATGIPDRFSGSGSGTDFTLTISRLEPEDFAVYYCQQYGSSPLTFGGGTKVEIK
modifications: 74804_12A21B VH and 74804_29D13A VH; 74804_12A21B VL
Consider B1, for which, in the test with cyIL1RAP, the “cyIL1RAP kdis(1/s)” value came to 0.000441 s⁻¹ and the “cyIL1RAP kon(1/Ms)” value came out at 342200 M⁻¹ s⁻¹. Moreover, the IC50 in test [1] worked out at 1.31 nM. Further, the “IL-1-induced IL-6 secretion” value in the test with A549 cells is recorded as “inhibited”. Further, in the test with A431 cells, the “IL-36-induced IL-8 secretion” value is on record as “inhibited”.

B2: 74804_43F04A: anti-IL1RAP mAb; VH SEQ ID NO:7, VL SEQ ID NO:22, κ light chain (antibody, V domains shown)
VH: QVQLLQSGAEVKKPGSSVKVSCKASGGTFSIYAIDWVRQAPGQGLEWMGGIIPIFGTENSAQNFQGRITITADKSTNTAYMELSSLRSEDTAVYYCARNGATSDAFDIWGQGTMVTVFS
VL: EIVLTQSPGTLSLSPGERATLSCRASLSVSSNYLAWFQQRPGQAPRLLIYGVSRRATGIPDRFSGSGSGTDFTLTISRLEPEDFAVYYCQQYGSSPLTFGGGTKVEIK
modifications: 74804_43F04A VH; 74804_07K10A VL, 74804_29D13A VL and 74804_43F04A VL
B2: in the test on cyIL1RAP, the “cyIL1RAP kdis(1/s)” value came out at 0.0004 s⁻¹ and the “cyIL1RAP kon(1/Ms)” value came to 412100 M⁻¹ s⁻¹. Also, the IC50 in test [1] amounted to 2.29 nM. Further, in the test on A549 cells, the “IL-1-induced IL-6 secretion” value is listed as “inhibited”. Also, the “IL-36-induced IL-8 secretion” value in the test on A431 cells was “inhibited”.
